Results reported in paper PMC3718817 (2013).

B1: Gal4AD-Sds22 [S. cerevisiae] / Gal4(1-147)-Glc7 [S. cerevisiae] (parent complex)
chain 1: MDKNSVNKDSEEKDERHKIEVVDDTNPDFITADSELTQDLPDDVEVIDLVHLKIKSLEDLNLYRFKNLKQLCLRQNLIESISEVEVLPHDKIVDLDFYDNKIKHISSNVNKLTKLTSLDLSFNKIKHIKNLENLTDLENLYFVQNSISKIENLSTLKSLKNLELGGNKVHSIEPDSFEGLSNLEEIWLGKNSIPRLINLHPLKNLKILSIQSNKLKKIENLEELTNLEELYLSHNFITKIEGLEKNLKLTTLDVTSNKITSLENLNHLSNLTDIWASFNKIDQSFESLGENLSALSRLETIYLEGNPIQLENKTSYRRKLTMNLPPSLQKIDATYIRG
chain 2: MDSQPVDVDNIIDRLLEVRGSKPGQQVDLEENEIRYLCSKARSIFIKQPILLELEAPIKICGDIHGQYYDLLRLFEYGGFPPESNYLFLGDYVDRGKQSLETICLLLAYKIKYPENFFILRGNHECASINRIYGFYDECKRRYNIKLWKTFTDCFNCLPIAAIIDEKIFCMHGGLSPDLNSMEQIRRVMRPTDIPDVGLLCDLLWSDPDKDIVGWSENDRGVSFTFGPDVVNRFLQKQDMELICRAHQVVEDGYEFFSKRQLVTLFSAPNYCGEFDNAGAMMSVDESLLCSFQILKPAQKSLPRQAGGRKKK

Variants of: B1
Assay: two-hybrid assay (β-galactosidase activity); three independent PJ69-4A transformants; parent: 23; read off a plot

Row | Variant | response
1 | chain 1 MDKNSVNKDSEEKDERHKIEVVDDTNPDFITADSELTQDLPDDVEVIDLVHLKIKSLEDLNLYRFKNLKQLCLRQNLIESISEVEVLPHDKIVDLDFYDNKIKHISSNVNKLTKLTSLDLSFNKIKHIKNLENLTDLENLYFVQNSISKIENLSTLKSLKNLELGGNKVHSIEPDSFEGLSNLEEIWLGKNSIPRLINLHPLKNLKILSIQSNKLKKIENLEELTNLEELYLSHNFITKIEGLEKNLKLTTLDVTSNKITSLENLNHLSNLTAIWASFNKIDQSFESLGENLSALSRLETIYLEGNPIQLENKTSYRRKLTMNLPPSLQKIDATYIRG [chain 1 D273A] | ~19
2 | chain 1 MDKNSVNKDSEEKDERHKIEVVDDTNPDFITADSELTQDLPDDVEVIDLVHLKIKSLEDLNLYRFKNLKQLCLRQNLIGSISEVEVLPHDKIVDLDFYDNKIKHISSNVNKLTKLTSLDLSFNKIKHIKNLENLTDLENLYFVQNSISKIENLSTLKSQKNLELGGNKVHSIEPDSFEGLSNLEEIWLGKNSIPRLINLHPLKNLKILSIQSNKLKKIENLEELTNLEELYLSHNFITKIEGLEKNLKLTTLDVTSNKITSLENLNHLSNLTDIWASFNKIDQSFESLGENLSAISRLETIYLEGNPIQLENKTSYRRKLTMNLPPSLQKIDATYIRG [chain 1 E79G, chain 1 L159Q, chain 1 L295I] | ~6
3 | chain 1 MDKNSVNKDSEEKDERHKIEVVDDTNPDFITADSELTQDLPDDVEVIDLVHLKIKSLEDLNLYRLKNLKQLCLRQNLIESISEVEVLPHDKIVDLDFYDNKIKHISSNVNKLTKLTSLDLSFNKIKHIKNLENLTDLENLHFVQNSISKIENLSTLKSLKNLELGGNKVHSIEPDSFEGLSNLEEIWLGKNSIPRLINLHPLKNLKILSTQSNKLKKIENLEELTNLEELYLSHNFITKIEGLEKNLKLTTLDVTSNKITSLENLNHLSNLTDIWASFNKIDQSFESLGENLSALSRLETIYLEGNPIQLENKTSYRRKLTMNLPPSLQKIDATYIRG [chain 1 F65L, chain 1 Y141H, chain 1 I210T] | ~13
4 | chain 1 MDKNSVNKDSEEKDERHKIEVVDDTNPDFITADSELTQDLPDDVEVIDLVHLKIKSLEDLNLYRFKNLKQLCLRQNLIESISEVEVLPHDKIVDLDFYDNKIKHISSNVNKLTKLTSLDLSFNKIKHIKNLENLTDLENLYFVQNSISKIENLSTLKSLKNLELGGNKVHSIEPDSFEGLSNLEEIWLGKNSIPRLINLHPLKNLKILSIQSNKLKKIENLEELTNLEELYLSHNFITKIEGLEKNLKLTTLDVTSNKITSLENLNHLSNLTDIAASFNKIDQSFESLGENLSALSRLETIYLEGNPIQLENKTSYRRKLTMNLPPSLQKIDATYIRG [chain 1 W275A] | ~11
5 | chain 1 MDKNSVNKDSEEKDERHKIEVVDDTNPDFITADSELTQDLPDDVEVIDLVHLKIKSLEDLNLYRFKNLKQLCLRQNLIESISEVEVLPHDKIVDLDFYDNKIKHISSNVNKLTKLTSLALSFNKIKHIKNLENLTDLENLYFVQNSISKIENLSTLKSLKNLELGGNKVHSIEPDSFEGLSNLEEIWLGKNSIPRLINLHPLKNLKILSIQSNKLKKIENLEELTNLEELYLSHNFITKIEGLEKNLKLTTLDVTSNKITSLENLNHLSNLTDIWASFNKIDQSFESLGENLSALSRLETIYLEGNPIQLENKTSYRRKLTMNLPPSLQKIDATYIRG [chain 1 D119A] | ~11
